Experimental data as given in patent US20260167698A1 (ONO PHARMACEUTICAL, published 2026).
Residue numbers refer to the chain shown, from its start.

T1: human Allergin-1L (expressed on CHO cells) (human, UniProt Q7Z6M3 20-343)
T1 construct: also called MILR1; human Allergin-1L-expressing CHO cell lines
T1 sequence: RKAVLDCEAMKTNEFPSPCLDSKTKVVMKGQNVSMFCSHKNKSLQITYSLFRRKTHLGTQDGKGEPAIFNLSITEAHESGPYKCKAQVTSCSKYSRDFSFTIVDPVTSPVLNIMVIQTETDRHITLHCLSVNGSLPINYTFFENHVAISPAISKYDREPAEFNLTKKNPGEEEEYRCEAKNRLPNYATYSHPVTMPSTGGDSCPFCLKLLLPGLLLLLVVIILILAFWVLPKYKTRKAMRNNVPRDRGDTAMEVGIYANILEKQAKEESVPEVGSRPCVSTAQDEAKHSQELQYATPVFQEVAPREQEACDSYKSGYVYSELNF

B1: humanized scFv Pro1751 (scFv, V domains shown)
VH: EVQLVESGGGLVQPGGSLRLSCAASGIDFSSYYDMCWVRQAPGKCLEWIGCIYTGSVGELYYASWAKGRFTISRDNSKNTVYLQMNSLRAEDTAVYYCARRGSGVDDYYFNLWGQGTLVTVSS
VL: DIQMTQSPSSLSASVGDRVTITCQSSQSVDNNNWLAWYQQKPGKAPKLLIYDASTLASGVPSRFSGSGSGTDFTLTISSLQPEDFATYYCQGTYYTTDWWNSFGCGTKVTVLG
notes: A single-chain Fv
B2: humanized scFv Pro1565 (scFv, V domains shown)
VH: EVQLVESGGGLVQPGGSLRLSCAASGFSLSSHAMAWVRQAPGKGLEWIGYIWSGGITEYPSWAKGRFTISRDNSKNTVYLQMNSLRAEDTAVYYCARDVHIYGDIYAFDLWGQGTLVTVSS
VL: DIQMTQSPSSLSASVGDRVTITCQASQDIESYLNWYQQKPGKAPKLLIYYASTLASGVPSRFSGSGSGTDFTLTISSLQPEDFATYYCQQSYSNSDVDKNVFGTGTKVTVLG
notes: A single-chain Fv
B3: humanized scFv Pro1588 (scFv, V domains shown)
VH: EVQLVESGGGLVQPGGSLRLSCAASGFSLTIYTITWVRQAPGKGLEWIGTINSYGNTYYSTWAKGRFTISRDNSKNTVYLQMNSLRAEDTAVYYCARGYVDSDWYLNIWGQGTLVTVSS
VL: DIQMTQSPSSLSASVGDRVTITCQSSESVYDNNYLSWYQQKPGKAPKLLIYDASRLASGVPSRFSGSGSGTDFTLTISSLQPEDFATYYCLGGYDSSGWYAAFGTGTKVTVLG
notes: A single-chain Fv
B4: humanized scFv Pro1570 (scFv, V domains shown)
VH: EVQLVESGGGLVQPGGSLRLSCAASGFSLSSYAMIWVRQAPGKGLEWIGFIDTDGHTEYANWAKGRFTISRDNSKNTVYLQMNSLRAEDTAVYYCARDGDHDYWGFNLWGQGTLVTVSS
VL: DIQMTQSPSSLSASVGDRVTITCQASQNIYRNLVWYQQKPGKAPKLLIYGASELESGVPSRFSGSGSGTDFTLTISSLQPEDFATYYCLSTYYISSSDNSFGTGTKVTVLG
notes: A single-chain Fv
B5: humanized scFv Pro1742 (scFv, V domains shown)
VH: EVQLVESGGGLVQPGGSLRLSCAASGFSLNNYFMIWVRQAPGKCLEWIGIITSYHTTYFANWAKGRFTISRDNSKNTVYLQMNSLRAEDTAVYYCAPYDIYGYPTLWGQGTLVTVSS
VL: DIQMTQSPSSLSASVGDRVTITCQASQSIGAYLSWYQQKPGKAPKLLIYEASTLASGVPSRFSGSGSGTDFTLTISSLQPEDFATYYCLGAYGRSSDDGTAFGCGTKVTVLG
notes: A single-chain Fv
B6: humanized scFv Pro1707 (scFv, V domains shown)
VH: ESQLVESGGGLVQPGGSLRLSCAVSGIDLSSYAVGWVRQAPGKGLEWIGIIGRSGSIYYASWAKGRFTISKDNSKNTVYLQMNSLRAEDTAVYYCARDVDSRPPTGSLWGQGTLVTVSS
VL: DVQMTQSPSSLSASVGDRVTITCQASQNTYSNLDWYQQKPGKAPKLLIYQASKLASGVPSRFSGSGSGTDFTLTISSLQPEDFATYYCQSTSWGSSYVGGFGTGTKVTVLG
notes: A single-chain Fv
B7: humanized scFv Pro1586 (scFv, V domains shown)
VH: EVQLVESGGGLVQPGGSLRLSCAASGIDLSYYAMNWVRQAPGKGLEWIGMIVGGGITFYANWAKGRFTISRDNSKNTVYLQMNSLRAEDTAVYYCAVGSDGGISDFNIWGQGTLVTVSS
VL: DIQMTQSPSSLSASVGDRVTITCQASQSISSYLAWYQQKPGKAPKLLIYRASTLASGVPSRFSGSGSGTDFTLTISSLQPEDFATYYCQQAYSLSNVDNFFGTGTKVTVLG
notes: A single-chain Fv
B8: humanized scFv Pro1571 (scFv, V domains shown)
VH: EVQLVESGGGLVQPGGSLRLSCAASGFSLSSHAMSWVRQAPGKGLEWIGTISTIDTTYYASWAKGRFTISRDNSKNTVYLQMNSLRAEDTAVYYCARLSELYTTNSYYSRWGQGTLVTVSS
VL: DIQMTQSPSSLSASVGDRVTITCQASESIGSLLAWYQQKPGKAPKLLIYRASTLESGVPSRFSGSGSGTDFTLTISSLQPEDFATYYCQSYHYSSSSSYAAFGTGTKVTVLG
notes: A single-chain Fv
B9: anti-Allergin-1 bispecific antibody #15_h_optv2 clone (bispecific antibody, human IgG1, kappa, L234A L235A, N297A)
heavy: EVQLVESGGGLVQPGGSLRLSCAASGFSLSSHAMSWVRQAPGKGLEWIGTISTIDTTYYASWAKGRFTISRDNSKNTVYLQMNSLRAEDTAVYYCARLSELYTTNSYYSRWGQGTLVTVSSASTKGPSVFPLAPSSKSTSGGTAALGCLVKDYFPEPVTVSWNSGALTSGVHTFPAVLQSSGLYSLSSVVTVPSSSLGTQTYICNVNHKPSNTKVDKRVEPKSCDKTHTCPPCPAPEAAGGPSVFLFPPKPKDTLMISRTPEVTCVVVDVSHEDPEVKFNWYVDGVEVHNAKTKPREEQYASTYRVVSVLTVLHQDWLNGKEYKCKVSNKALPAPIEKTISKAKGQPREPQVYTLPPSREEMTKNQVSLTCLVKGFYPSDIAVEWESNGQPENNYKTTPPVLDSDGSFFLYSKLTVDKSRWQQGNVFSCSVMHEALHNHYTQKSLSLSPGGGGGSGGGGSAIQMTQSPSSLSARVGDRVTITCQSSESVYDNNYLSWYQQKPGKAPKLLIYDASRLASGVPSRFSGSGSGTQFTLTISSLQPEDFATYYCLGGYDSSGWYAAFGTGTKVTVLGGGGGSGGGGSGGGGSGGGGSEVQLVESGGGLVQPGGSLRLSCAASGFSLTIYTITWVRQAPGKGLEWIGTINSYGNTYYSTWAKGRFTISRDNSKNTVYLQMNSLRAEDTAVYYCARGYVDSDWYLNIWGQGTLVTVSS
light: DIQMTQSPSSLSASVGDRVTITCQASESIGSLLAWYQQKPGKAPKLLIYRASTLESGVPSRFSGSGSGTDFTLTISSLQPEDFATYYCQSYHYSSSSSYAAFGQGTKVEIKRTVAAPSVFIFPPSDEQLKSGTASVVCLLNNFYPREAKVQWKVDNALQSGNSQESVTEQDSKDSTYSLSSTLTLSKADYEKHKVYACEVTHQGLSSPVTKSFNRGEC
notes: Morrison form: Fab Pro1571, scFv Pro2281
B10: anti-Allergin-1 bispecific antibody #15_h clone (bispecific antibody, human IgG1, kappa, L234A L235A, N297A)
heavy: B9 heavy with A461D, R474S, Q532D
light: B9 light
notes: Morrison form antibody: Fab from Pro1571 (S2-D), scFv from Pro1588 (S1-A) on the heavy chain C-terminus
B11: anti-Allergin-1 bispecific antibody #15_h_opt clone (bispecific antibody, human IgG1, kappa, L234A L235A, N297A)
heavy: B9 heavy with T565C, G637C
light: B9 light
notes: Morrison form: Fab Pro1571, scFv Pro2282
B12: anti-Allergin-1 bispecific antibody #15p_h_opt clone (bispecific antibody, human IgG1, kappa, L234A L235A, N297A)
heavy: EVQLVESGGGLVQPGGSLRLSCAASGFSLTIYTITWVRQAPGKGLEWIGTINSYGNTYYSTWAKGRFTISRDNSKNTVYLQMNSLRAEDTAVYYCARGYVDSDWYLNIWGQGTLVTVSSASTKGPSVFPLAPSSKSTSGGTAALGCLVKDYFPEPVTVSWNSGALTSGVHTFPAVLQSSGLYSLSSVVTVPSSSLGTQTYICNVNHKPSNTKVDKRVEPKSCDKTHTCPPCPAPEAAGGPSVFLFPPKPKDTLMISRTPEVTCVVVDVSHEDPEVKFNWYVDGVEVHNAKTKPREEQYASTYRVVSVLTVLHQDWLNGKEYKCKVSNKALPAPIEKTISKAKGQPREPQVYTLPPSREEMTKNQVSLTCLVKGFYPSDIAVEWESNGQPENNYKTTPPVLDSDGSFFLYSKLTVDKSRWQQGNVFSCSVMHEALHNHYTQKSLSLSPGGGGGSGGGGSDIQMTQSPSSLSASVGDRVTITCQASESIGSLLAWYQQKPGKAPKLLIYRASTLESGVPSRFSGSGSGTDFTLTISSLQPEDFATYYCQSYHYSSSSSYAAFGCGTKVTVLGGGGGSGGGGSGGGGSGGGGSEVQLVESGGGLVQPGGSLRLSCAASGFSLSSHAMSWVRQAPGKCLEWIGTISTIDTTYYASWAKGRFTISRDNSKNTVYLQMNSLRAEDTAVYYCARLSELYTTNSYYSRWGQGTLVTVSS
light: AIQMTQSPSSLSARVGDRVTITCQSSESVYDNNYLSWYQQKPGKAPKLLIYDASRLASGVPSRFSGSGSGTQFTLTISSLQPEDFATYYCLGGYDSSGWYAAFGQGTKVEIKRTVAAPSVFIFPPSDEQLKSGTASVVCLLNNFYPREAKVQWKVDNALQSGNSQESVTEQDSKDSTYSLSSTLTLSKADYEKHKVYACEVTHQGLSSPVTKSFNRGEC
notes: Morrison form: Fab Pro2281, scFv Pro2285

Target: T1, human Allergin-1L (expressed on CHO …)
Experiment: selected on binding by CELISA and SPR (Example 5)
Experimental: The purified humanized scFv was analyzed for binding to CHO cells stably expressing human Allergin-1L and monkey Allergin-1, by CELISA, respectively. In detail, the CHO cells were seeded in 96-well plates, to which diluted humanized scFv was added, and which were incubated at 37° C. After washing the CHO cells, to which diluted HRP-labeled Protein L was added, and which were incubated again at 37° C. After washing the CHO cells again, to which HRP chromogenic substrate was added, and which were incubated at room temperature, and then in which absorbance was measured. As a result, the bindings to human Allergin-1L and monkey Allergin-1 were confirmed in several clones.
Furthermore, for each humanized scFv, the binding to Fc-fused human Allergin-1L recombinant protein was analyzed by SPR method. In detail, Fc-fused human Allergin-1L recombinant protein was immobilized on a sensor chip, followed by flowing humanized scFv as an analyte into a flow cell. As a result, the bindings to human Allergin-1L were confirmed in several clones.

Binder | binding result
B1 | binds
B2 | binds
B3 | binds
B4 | binds
B5 | binds
B6 | binds
B7 | binds
B8 | binds

Target: T1, human Allergin-1L (expressed on CHO …)
Experiment: flow cytometry, binding to Allergin-1L

Binder | EC50 [nM]
B9 | 2.41
B10 | 2.37
B11 | 2.58
B12 | 1.49
